Drawing on patent US20220202913, “NOVEL OMNI-50 CRISPR NUCLEASE” (EmendoBio Inc., published 2022), this text covers activity (1-depletion score) and activity for four molecules.

Series [1] concerns T1, OMNI-50 (Ezakiella peruensis strain M6.X2).
T1 sequence: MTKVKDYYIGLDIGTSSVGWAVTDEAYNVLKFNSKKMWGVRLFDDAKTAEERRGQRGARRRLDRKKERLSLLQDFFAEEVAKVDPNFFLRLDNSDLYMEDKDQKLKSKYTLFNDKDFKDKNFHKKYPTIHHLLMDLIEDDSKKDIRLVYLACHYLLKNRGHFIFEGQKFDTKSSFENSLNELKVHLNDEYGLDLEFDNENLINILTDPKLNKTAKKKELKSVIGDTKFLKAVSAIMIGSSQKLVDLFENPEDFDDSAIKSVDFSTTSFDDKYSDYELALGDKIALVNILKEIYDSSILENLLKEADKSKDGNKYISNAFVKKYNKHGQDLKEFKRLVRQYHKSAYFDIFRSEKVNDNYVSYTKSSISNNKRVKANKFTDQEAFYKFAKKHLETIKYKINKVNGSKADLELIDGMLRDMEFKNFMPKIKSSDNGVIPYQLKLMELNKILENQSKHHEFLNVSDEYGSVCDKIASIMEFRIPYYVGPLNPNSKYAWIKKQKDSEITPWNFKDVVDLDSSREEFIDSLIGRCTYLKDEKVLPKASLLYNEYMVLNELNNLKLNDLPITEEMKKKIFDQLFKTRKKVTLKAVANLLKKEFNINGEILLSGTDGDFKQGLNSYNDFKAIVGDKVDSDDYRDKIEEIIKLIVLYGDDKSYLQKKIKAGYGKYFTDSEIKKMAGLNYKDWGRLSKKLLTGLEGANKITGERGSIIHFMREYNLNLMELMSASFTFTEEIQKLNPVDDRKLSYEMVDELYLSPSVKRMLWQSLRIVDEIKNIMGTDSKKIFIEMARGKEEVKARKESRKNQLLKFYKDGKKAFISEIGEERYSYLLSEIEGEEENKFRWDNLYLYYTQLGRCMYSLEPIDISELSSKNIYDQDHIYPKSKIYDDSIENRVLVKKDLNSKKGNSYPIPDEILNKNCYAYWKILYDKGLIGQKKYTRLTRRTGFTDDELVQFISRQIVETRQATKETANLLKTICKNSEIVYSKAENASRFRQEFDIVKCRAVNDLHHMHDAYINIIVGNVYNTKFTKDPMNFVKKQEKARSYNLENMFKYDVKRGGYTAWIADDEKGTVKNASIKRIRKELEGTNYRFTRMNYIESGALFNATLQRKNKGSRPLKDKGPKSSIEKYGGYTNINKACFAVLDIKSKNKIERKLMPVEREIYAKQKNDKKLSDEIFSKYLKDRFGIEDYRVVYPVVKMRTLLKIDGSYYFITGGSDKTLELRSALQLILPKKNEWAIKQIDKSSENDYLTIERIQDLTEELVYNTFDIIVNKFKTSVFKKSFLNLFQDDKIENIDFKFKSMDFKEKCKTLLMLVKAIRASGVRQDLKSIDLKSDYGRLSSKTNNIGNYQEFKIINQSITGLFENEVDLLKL
The series is described as follows: cleavage_in_vitro. To be noted: TXTL PAM depletion, PAM NGG; some activity with NAG and NGA; sgRNA V1 and V2.

Another series concerns the target T2, OMNI-50 (Ezakiella peruensis strain M6.X2).
T2 chain: T1 sequence
Nature of the series: cell_activity; PAM NGG; RNP in U2OS. To be noted: tags: SV40 NLS N-terminal, HA-SV40 NLS-8xHis C-terminal (pET9a). How it is done:
FIG. 5A-FIG. 5D: OMNI-50 activity Assay as RNP. OMNI-50 nuclease was over-expressed and purified. The purified protein was complexed with synthetic sgRNA to form RNPs. For the in-vitro assays (FIG. 5A and FIG. 5B) RNPs were incubated with a linear DNA template containing the corresponding target and PAM sequences (listed in Table 5). Activity was verified by cleavage of the linear template. For the in-vivo assays (FIG. 5C and FIG. 5D), U2OS cells were electroporated with RNPs and activity was determined by measurement of indel frequency by NGS. FIG. 5A: Activity assay of OMNI-50 RNP with different spacer lengths (17-23 bps) of guide 35 (Table 10). FIG. 5B: Decreasing amounts of RNPs (4 pmol, 2 pmol, 1.2 pmol, 0.6 pmol and 0.2 pmol) with spacer lengths 20-23 nts were incubated with 100 ng DNA target template. FIG. 5C: Activity assay for OMNI-50 as RNP in U2OS cells: RNPs with spacer lengths 17-23 bps were electroporated into U2OS cell line and editing levels (indels) measured by NGS. FIG. 5D: Activity assay for OMNI-50 as RNP in U2OS cells: RNPs with ELANE g35 sgRNA V1-V4 were electroporated into U2OS cell line and editing levels (indels) measured by NGS.
Spacer length optimization was also performed in a mammalian cell context. RNPs were assembled by mixing 100 uM nuclease with 120 uM of synthetic guide with different spacer lengths (17-23 nt, Table 5) and 100 uM Cas9 electroporation enhancer (IDT). After 10 minutes of incubation at room temperature, the RNP complexes were mixed with 200,000 pre-washed U2OS, iPSC, or HSC cells and electroporated using Lonza SE or P3 Cell Line 4D-Nucleofector™ X Kit with the DN100 or CA137 program, respectively, according to the manufacture's protocol. At 72 h cells were lysed and their genomic DNA was used in a PCR reaction to amplify the corresponding putative genomic targets. Amplicons were subjected to NGS and the resulting sequences were then used to calculate the percentage of editing events.

In the case of “GGAAGAGCAGAGCCUUGGUCUCGUUUGAGAGUUAUGUAAGAAAUUACAUGACGAGUUCAAAUAAAAAUUUAUUCAAACCGCCUAUUUAUAGGCCGCAGAUGUUCUGCAUUAUGCUUGCUAUUGCAAGCUUUUUU / GGAAGAGCAGAGCCTTGGTCTCNNNNNNNN / NNNNNNNNGAGACCAAGGCTCTGCTCTTCC [T2 sgRNA V2 ; T2 protospacer 8N PAM library]”, the activity (1-depletion score) in series [1] was found to be 0.98.

B1: ELANE g35 sgRNA V2 22 nt spacer ; ELANE g35 on-target (ssRNA ; dsDNA)
RNA: GCAGUCCGGGCUGGGAGCGGGUGUUUGAGAGUUAUGUAAGAAAUUACAUGACGAGUUCAAAUAAAAAUUUAUUCAAACCGCCUAUUUAUAGGCCGCAGAUGUUCUGCAUUAUGCUUGCUAUUGCAAGCUUUUUU
DNA 1: CTGTTGCTGCAGTCCGGGCTGGGAGCGGGTGGGGAGCAGAGGG
DNA 2: CCCTCTGCTCCCCACCCGCTCCCAGCCCGGACTGCAGCAACAG
modifications: three 2'-OMe 3'-PS at 5' and 3' ends
For B1, in the series with OMNI-50, the activity came out at 90.9 % indels.

B2: ELANE g35 sgRNA V2 17 nt spacer ; ELANE g35 on-target (ssRNA ; dsDNA)
RNA: CCGGGCUGGGAGCGGGUGUUUGAGAGUUAUGUAAGAAAUUACAUGACGAGUUCAAAUAAAAAUUUAUUCAAACCGCCUAUUUAUAGGCCGCAGAUGUUCUGCAUUAUGCUUGCUAUUGCAAGCUUUUUU
DNA 1: B1 DNA 1
DNA 2: B1 DNA 2
modifications: three 2'-OMe 3'-PS at 5' and 3' ends
With B2, in the series with OMNI-50, the activity was determined as 0.54 % indels.

B3: ELANE g35 sgRNA V2 20 nt spacer ; ELANE g35 on-target (ssRNA ; dsDNA)
RNA: AGUCCGGGCUGGGAGCGGGUGUUUGAGAGUUAUGUAAGAAAUUACAUGACGAGUUCAAAUAAAAAUUUAUUCAAACCGCCUAUUUAUAGGCCGCAGAUGUUCUGCAUUAUGCUUGCUAUUGCAAGCUUUUUU
DNA 1: B1 DNA 1
DNA 2: B1 DNA 2
modifications: three 2'-OMe 3'-PS at 5' and 3' ends
On to B3, for which the activity with OMNI-50 worked out at 43.8 % indels.
